Data: PMC4755762

Columns and labels:
[1] = biological target: CD11b_(614-682c)/CD18 chimera on CHO cells (human) (UniProt P11215); test: flow cytometry on cells
[2] = biological target: CR3 chimera with residues 33 to 115 of CD11b replaced by the corresponding segment of CD11c, with CD18, on CHO cells (human) (UniProt P11215); test: flow cytometry on cells
[3] = biological target: CR3 chimera with residues 686 to 1152 of CD11b replaced by the corresponding segment of CD11c, with CD18, on CHO cells (human) (UniProt P11215); test: flow cytometry on cells
[4] = biological target: CD11b_(342-424c)/CD18 chimera on CHO cells (human) (UniProt P11215); test: flow cytometry on cells
[5] = biological target: CD11c_(614-682b)-YFP/CD18 chimera on CHO cells (human) (UniProt P11215); test: flow cytometry on cells; 2x10^5 CHO cells expressing YFP-fused integrins with different concentrations of CyaA-biotin; streptavidin-PE; mean fluorescence intensities against CyaA concentration

adenylate cyclase toxin-hemolysin (CyaA) of Bordetella pertussis, intact (from UniProt P0DKX7 1-1706) (natural protein)
fold decrease of CyaA binding against intact CR3 [1]: 10 fold | CyaA binding, percent of binding to intact CD11b/CD18 [2]: 72% | CyaA binding, percent of binding to intact CD11b/CD18 [3]: 89% | CyaA binding, percent of binding to intact CD11b/CD18 [4]: 61% | fold higher CyaA binding than CD11c-YFP/CD18 [5]: 24 fold | fold lower CyaA binding than CD11b-YFP/CD18 [5]: 1.7 fold
